Test results: US20200179236A1, “METHOD AND PRODUCT FOR CARIES TREATMENT” (Credentis AG, priority 2016, published 2020)
Where no end group is shown, it is not given here.

Tests used:
[1] = pH at which the peptide starts to undergo self-assembly; type: physicochemical
From the text: Particular self-assembling peptides for use according to the invention are selected such that they are in self-assembled form when the pH of their environment is below a certain pH, e.g. below pH 7.5, e.g., at physiological ionic strength. The pH at which preferred self-assembling peptides of the invention undergo self-assembly is below 7.5, preferably below 7.2, more preferably below 7.0. For example, the pH at which the self-assembling peptide P11-4 (SEQ ID NO:1) and terminally modified P11-4 (SEQ ID NO:2) start to undergo self-assembly is about 7.5. This means that the self-assembling peptides start to self-assemble to a significant extent when the pH drops below 7.5.
As used herein, the pH at which the self-assembling peptide starts to undergo self-assembly refers to the pH below which a significant extent of self-assembly of the peptides in solution is observed, which means that at least about 25%, about 30%, about 35%, about 40%, about 45%, about 50%, about 55%, about 60%, about 65%, about 70%, about 75%, about 80%, about 85%, about 90%, about 95%, about 99% or even about 100% of the peptides found in the dental care product are assembled. In a preferred embodiment, at least about 25% of the peptides found in the dental care product are assembled below the pH at which the peptide starts to undergo self-assembly. […]

[2] = Self-assembling kinetic of P11-4 by measurements of elastic modulus G′; type: physicochemical; conditions: 15 mg/ml, neutral pH, 37° C., 0.1% strain, 1 rad/second; independent of ionic strength
Method: P11-4 was prepared at 15 mg/ml with different buffer compositions (see below) measured at 0.1% strain, 37° C. and a frequency of 1 rad/second. Self-assembly of peptide monomers to polymers takes more than 5 min independent of the used ionic strength at neutral pH.
Squares (top line of symbols) —NaCl: Tris (0.055 M)+NaCl, final ionic strength 142 mM;
Artifical saliva (second line of symbols from top): Tris, Ca(NO3)2, KH2PO4 (ratio 0.77:0.14: 0.08), ionic strength 142 mM;
Dulbecco's Modified Eagle Medium (DMEM): NaCl, NaHCO3,KCl,CaCl2, MgSO4 (ratio 0.66:0.4:0.05: 0.02:0.007), ionic strength 165 mM; MgSO4: 0.055 M Tris+0.192 M MgSO4 0.14 M Ionic strength

Q: For “CH3CO-QQRFEWEFEQQ-NH2 (Ac-QQRFEWEFEQQ-NH2) [terminally modified P11-4]”, which “pH at which the peptide starts to undergo self-assembly” value [1] is on record?
A: about 7.5

Q: For QQRFEWEFEQQ, which “time of self-assembly of peptide monomers to polymers” value [2] is on record?
A: more than 5 min

Q: What about the “pH at which the peptide starts to undergo self-assembly” value [1] of the same substance?
A: about 7.5
